Target: RAG1;RAG2;HMG (HMG-1/2) (;;) (UniProt P15919+P21784)
Experiment: EMSA
Conditions: Standard gel shift, conditions as in Fugmann et al. 2000b (not given in the material), three experiments

With “GATCTGGCCTGGTCTGCACAACCCTGTGACTCCCAACAAAAACCTGCACTCGAGCGGAG (double strand) [N (Jβ2.6 with consensus nonamer)]” as the sequence, how does the binding signal (relative to Jβ2.2) (up to level of Jβ2.2) read?
The binding signal (relative to Jβ2.2) was 1.

“GATCTGGCCTGGTCTGCACAACCCTGTGACTCCCAAGAGAAACCTGCACTCGAGCGGAG (double strand) [Jβ2.6 12-RSS]” was tested. Which binding signal (relative to Jβ2.2) (about 2-fold reduced) did it give?
Its binding signal (relative to Jβ2.2) is 0.5.

Which binding signal (relative to H-Sc-N) (about 3-fold reduced vs H-Sc-N) does the source give for “GATCTGGCCTGGTCTGCACAGTGCAGATCTAGGAGACAAAAACCTGCACTCGAGCGGAG (double strand) [H-Sac-N]” here?
Its binding signal (relative to H-Sc-N) is 0.33.

Which binding signal (relative to Jβ2.2) does the source give for “GATCTGGCCTGGTTTGCACAGTCCTGGAAATGCTGGCACAAACCTGCACTCGAGCGGAG (double strand) [Jβ2.2 12-RSS]” here?
The binding signal (relative to Jβ2.2) was 1.
